Test results: US20250041416A1 (Innovent, published 2025)

T1: Human BCMA on cells (human, UniProt Q02223 1-184)
T1 construct: whole, on cells; also called hBCMA-CHO GS; Human BCMA CHO-S
T1 sequence (looked up): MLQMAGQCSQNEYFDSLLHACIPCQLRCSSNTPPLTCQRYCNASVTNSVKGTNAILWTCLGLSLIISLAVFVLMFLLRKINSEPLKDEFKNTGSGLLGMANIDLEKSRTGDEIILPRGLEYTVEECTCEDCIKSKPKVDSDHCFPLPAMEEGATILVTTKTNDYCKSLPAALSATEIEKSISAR

T2: Human BCMA-IHM (human, UniProt Q02223 1-54, limits assumed)
T2 construct: any tag or fusion partner is unknown
T2 sequence (looked up): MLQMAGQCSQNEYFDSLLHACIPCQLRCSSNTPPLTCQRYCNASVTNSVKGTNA


What was measured:
[1] = biological target: T3, ADI-38497 WT antibody; assay: SPR (Biacore T200), avidity format: ADI-38497 WT IgG captured on anti-Fab IgG on an HLC chip, anti-PG scFv fusion protein in the mobile phase
T3 construct: also called WT BCMA antibody
Protocol: The assay procedure was performed using a 10-fold dilution of 10×HBS-EP+(BR-1006-69, Cytiva) as the experimental buffer. […] A gradient dilution of anti-PG scFv (concentration gradient of 1.25 nM-40 nM, 2-fold dilution) was flowed over the chip surface from low to high concentration in a flow rate of 30 μl/min, with an association time of 180 s and a dissociation time of 300 s. Finally, the chip was regenerated with 10 mM glycine-HCl, pH 1.5 (BR-1003-54, Cytiva).
The data results were analyzed by Biacore T200 analysis software (version 3.1) using a 1:1 binding model.

[2] = biological target: T1, Human BCMA on cells; assay: cell binding on human BCMA CHO-S cells
[3] = biological target: T1, Human BCMA on cells; assay: cell binding on H929 cells (human BCMA)
[4] = biological target: T2, Human BCMA-IHM; assay: Biacore (SPR), Fab, human BCMA-IHM, monovalent
[5] = biological target: Cynomolgus monkey BCMA-Fc (cynomolgus monkey, UniProt A0A2K5UD97 1-53); assay: ForteBio (BLI), IgG, cynomolgus monkey BCMA-Fc, avid
[6] = biological target: T2, Human BCMA-IHM; assay: ForteBio (BLI), IgG, human BCMA-IHM, monovalent

Chain of Cynomolgus monkey BCMA-Fc (A0A2K5UD97 entry or part of it): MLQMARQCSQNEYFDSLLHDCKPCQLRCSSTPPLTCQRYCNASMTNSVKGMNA

| Binder | Cell Binding, FOB (Fold Over Background) [2] [fold] | Cell Binding, FON (Fold Over Negative) [3] [fold] | other results |
| --- | --- | --- | --- |
| anti-P329G mutation-specific single chain antibody-rabbit Fc fusion protein (Fc fusion, scFv of the P329G CAR extracellular domain fused to rabbit Fc; also called anti-PG scFv fusion protein; anti-PG scFv) EVQLVESGGGLVQPGGSLRLSCAASGFTFSRYWMNWVRQAPGKGLEWVGEITPDSSTINYAPSLKGRFTISRDNAKNSLYLQMNSLRAEDTAVYYCARPYDYGAWFASWGQGTLVTVSSGGGGSGGGGSGGGGSGGGGSQAVVTQEPSLTVSPGGTVTLTCRSSTGAVTTSNYANWVQEKPDHLFTGLIGGTNKRAPGTPARFSGSLLGGKAALTLSGAQPEDEAEYYCALWYSNHWVFGGGTKLTVLGGGGSSKPTCPPPELLGGPSVFIFPPKPKDTLMISRTPEVTCVVVDVSQDDPEVQFTWYINNEQVRTARPPLREQQFNSTIRVVSTLPIAHQDWLRGKEFKCKVHNKALPAPIEKTISKARGQPLEPKVYTMGPPREELSSRSVSLTCMINGFYPSDISVEWEKNGKAEDNYKTTPAVLDSDGSYFLYSKLSVPTSEWQRGDVFTCSVMHEALHNHYTQKSISRSPGK |  |  | binding result [1]: no binding |
| ADI-38484 (IgG as tested in Table 2) (antibody, V domains shown) VH: QVQLVQSGAEVKKPGSSVKVSCKASGGTFSNDVISWVRQAPGQGLEWMGVIIPIFGIANYAQKFQGRVTITADESTSTAYMELSSLRSEDTAVYYCARGRGYYSSWLHDIWGQGTMVTVSS VL: DIQMTQSPSSLSASVGDRVTITCQASQDITNYLNWYQQKPGKAPKLLIYDASNLETGVPSRFSGSGSGTDFTFTISSLQPEDIATYYCQQAFDLITFGGGTKVEIK | 11 | 35 |  |
| ADI-38484 Fab (Fab, V domains shown) VH: QVQLVQSGAEVKKPGSSVKVSCKASGGTFSNDVISWVRQAPGQGLEWMGVIIPIFGIANYAQKFQGRVTITADESTSTAYMELSSLRSEDTAVYYCARGRGYYSSWLHDIWGQGTMVTVSS VL: DIQMTQSPSSLSASVGDRVTITCQASQDITNYLNWYQQKPGKAPKLLIYDASNLETGVPSRFSGSGSGTDFTFTISSLQPEDIATYYCQQAFDLITFGGGTKVEIK |  |  | Kd [4]: 0.0132 nM |
| ADI-34857 (antibody, V domains shown, also called BCMA parent antibody ADI-34857) VH: not shown VL: DIQMTQSPSSLSASVGDRVTITCQASQDITNYLNWYQQKPGKAPKLLIYDASNLETGVPSRFSGSGSGTDFTFTISSLQPEDIATYYCQQAFDLITFGGGTKVEIK | 2 | 5 | Kd [5]: 5.93 nM; Kd [6]: 27.7 nM |
| ADI-38497 Fab (Fab, V domains shown) VH: QLQLQESGPGLVKPSETLSLTCTVSGGSIVSSSYYWTWIRQPPGKGLEWIGSISIAGSTYYNPSLKSRVTISVDTSKNQFSLKLSSVTAADTAVYYCARDRGDQILDVWSQGTMVTVSS VL: DIQMTQSPSSLSASVGDRVTITCRASQSISRYLNWYQQKPGKAPKLLIYAASSLQSGVPSRFSGSGSGTDFTLTISSLQPEDFATYYCQQKYFDITFGGGTKVEIK |  |  | Kd [4]: 0.104 nM |
| ADI-34861 (antibody, V domains shown, also called BCMA parent antibody ADI-34861) VH: QLQLQESGPGLVKPSETLSLTCTVSGGSISSSSYYWGWIRQPPGKGLEWIGSISYSGSTYYNPSLKSRVTISVDTSKNQFSLKLSSVTAADTAVYYCARDRGDTILDVWGQGTMVTVSS VL: DIQMTQSPSSLSASVGDRVTITCRASQSISRYLNWYQQKPGKAPKLLIYAASSLQSGVPSRFSGSGSGTDFTLTISSLQPEDFATYYCQQKYFDITFGGGTKVEIK | 4 | 6 |  |
| ADI-38497 (IgG as tested in Table 2) (antibody, V domains shown) VH: QLQLQESGPGLVKPSETLSLTCTVSGGSIVSSSYYWTWIRQPPGKGLEWIGSISIAGSTYYNPSLKSRVTISVDTSKNQFSLKLSSVTAADTAVYYCARDRGDQILDVWSQGTMVTVSS VL: DIQMTQSPSSLSASVGDRVTITCRASQSISRYLNWYQQKPGKAPKLLIYAASSLQSGVPSRFSGSGSGTDFTLTISSLQPEDFATYYCQQKYFDITFGGGTKVEIK | 8 | 26 |  |
